Measurements reported in PMC10361663.

Assays:
Importin β = Importin β (UniProt Q14974); experiment: anti-GFP co-IP, Western blot; conditions: reference: eGFP-HURP wild type; sites S627
Kif5B = Kif5B (UniProt P33176); experiment: anti-GFP co-IP, Western blot; conditions: reference: eGFP-HURP wild type; sites S627

binding against the reference (Importin β): lost
binding against the reference (Kif5B): lost
Substance: HURP 1-846 (from UniProt Q15398) eGFP-HURP S627A
